The values that follow come from IntAct's records for PubMed 22841714.

The labels stand for the following.
B1: ADP-ribosylation factor 6 (Mus musculus), P62331 (parent)
chain: MGKVLSKIFGNKEMRILMLGLDAAGKTTILYKLKLGQSVTTIPTVGFNVETVTYKNVKFNVWDVGGQDKIRPLWRHYYTGTQGLIFVVDCADRDRIDEARQELHRIINDREMRDAIILIFANKQDLPDAMKPHEIQEKLGLTRIRDRNWYVQPSCATSGDGLYEGLTWLTSNYKS
partner: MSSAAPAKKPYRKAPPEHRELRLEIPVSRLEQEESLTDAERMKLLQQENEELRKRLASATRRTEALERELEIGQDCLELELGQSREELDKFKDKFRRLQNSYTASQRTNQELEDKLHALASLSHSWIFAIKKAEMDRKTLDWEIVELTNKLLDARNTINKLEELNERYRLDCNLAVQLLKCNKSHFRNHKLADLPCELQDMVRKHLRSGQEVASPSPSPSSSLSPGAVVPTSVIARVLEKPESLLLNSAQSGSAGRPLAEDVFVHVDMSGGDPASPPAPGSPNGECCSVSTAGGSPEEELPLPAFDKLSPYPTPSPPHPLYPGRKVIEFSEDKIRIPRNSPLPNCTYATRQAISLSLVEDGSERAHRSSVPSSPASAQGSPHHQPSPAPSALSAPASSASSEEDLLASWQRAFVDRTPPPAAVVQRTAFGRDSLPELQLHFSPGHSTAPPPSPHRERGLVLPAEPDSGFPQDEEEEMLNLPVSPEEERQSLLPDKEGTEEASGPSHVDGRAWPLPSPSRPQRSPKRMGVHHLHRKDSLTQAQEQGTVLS

The variants in the experiment derive from B1. As to conditions: with tjap1_mouse Tjap1, Q9DCD5.
On to T44N, for which the “effect of a mutation on the interaction” value is “disrupting interaction”.
